Results: IntAct's records for PubMed 23177925

B1: Cell division control protein 13 (Saccharomyces cerevisiae), P32797 (parent)
chain: MDTLEEPECPPHKNRIFVSSSKDFEGYPSKAIVPVQFVALLTSIHLTETKCLLGFSNFERRGDQSQEDQYLIKLKFKDRGSERLARITISLLCQYFDIELPDLDSDSGASPTVILRDIHLERLCFSSCKALYVSKHGNYTLFLEDIKPLDLVSVISTISTKSTNSSKHSSSELISECDLNNSLVDIFNNLIEMNRDEKNRFKFVKLIHYDIELKKFVQDQQKVLSQKSKAAAINPFFVPNRLGIPYIESQNEFNSQLMTLNVDEPTTDISNMGEEMHDSADPIEDSDSSTTSSTGKYFSSKSYIQSQTPERKTSVPNNWHDDDSGSKRKRKLSFHSPNASSIRKAISYEQLSLASVGSVERLEGKIVGMNPPQFASINEFKYCTLKLYFTQLLPNVPDKVLVPGVNCIEIVIPTRERICELFGVLNCQSDKISDILLLEKPDRISVEVERILWDNDKTASPGMAVWSLKNISTDTQAQAQVQVPAQSSASIDPSRTRMSKMARKDPTIEFCQLGLDTFETKYITMFGMLVSCSFDKPAFISFVFSDFTKNDIVQNYLYDRYLIDYENKLELNEGFKAIMYKNQFETFDSKLRKIFNNGLRDLQNGRDENLSQYGIVCKMNIKVKMYNGKLNAIVRECEPVPHSQISSIASPSQCEHLRLFYQRAFKRIGESAISRYFEEYRRFFPIHRNGSHLAKLRFDEVKHEPKKSPTTPALAEHIPDLNADVSSFDVKFTDISSLLDSSARLPRPQQTHKSNTLYSCEGRIIAIEYHASDLCFHITNELPLLQTRGLAPERVLQLHIITSKNFAYFFNRSSAYLQRQPLEEKYTQLAQFLGHSFKFNITSSLTLFPDTTVALQIWCPIECTFRELQQQLAHPKVAAAPDSGSLDCAINATVNPLRLLAAQNGVTVKKEEDNDDDAGAVPTS
partner: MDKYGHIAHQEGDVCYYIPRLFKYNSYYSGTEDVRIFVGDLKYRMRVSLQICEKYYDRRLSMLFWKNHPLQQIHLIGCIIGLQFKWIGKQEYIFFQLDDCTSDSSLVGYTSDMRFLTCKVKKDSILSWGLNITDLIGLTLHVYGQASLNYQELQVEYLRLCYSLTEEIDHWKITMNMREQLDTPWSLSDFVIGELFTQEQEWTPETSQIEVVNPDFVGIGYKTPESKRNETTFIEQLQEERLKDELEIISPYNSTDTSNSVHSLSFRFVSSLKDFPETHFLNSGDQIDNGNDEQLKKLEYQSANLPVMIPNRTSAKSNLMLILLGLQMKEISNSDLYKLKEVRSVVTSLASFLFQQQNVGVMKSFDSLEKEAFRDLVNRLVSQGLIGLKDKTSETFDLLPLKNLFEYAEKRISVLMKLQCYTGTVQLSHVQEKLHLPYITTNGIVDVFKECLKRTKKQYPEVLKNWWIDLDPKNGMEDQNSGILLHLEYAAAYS

Variants of: B1
Conditions: with stn1_yeast STN1, P38960

Row | effect of a mutation on the interaction | Variant
1 | disrupting interaction strength | C383A;M463A
2 | disrupting interaction strength | C383S;L401A
3 | disrupting interaction strength | P371S;C383S
4 | disrupting interaction strength | C383S;Y388A
